From the supplement of paper PMC12042874 come the findings set out here.

± gives the uncertainty stated by the source.

A short description of the data set: amyloid nucleation score (Sup35N fusion, yeast selection) (log enrichment); library NNK3; higher = more nucleation; inactive = no reads after selection. The essentials:
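Peptides of 20 random codons, each fused to Sup35N, were expressed in psi-negative yeast. Cells were induced with 100 μM copper sulfate for 24 hours and grown 7 days at 30°C on medium lacking adenine and uracil, and plasmid inserts before and after selection were Illumina-sequenced. Nucleation scores are DiMSum log enrichments of output over input reads, centred on the mode score of non-aggregating sequences, and sequences under 100 input reads were excluded.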

In the case of FPSKCCANKSSYLGWTSLCW, the amyloid nucleation score result is “inactive”.
For the substance SMGRYDLLPTPDVVSLSYNM, the amyloid nucleation score entry was “inactive”.
The same measure for FSIPPFTRTCLKNGLHYSVR: -0.759 ± 0.88; for ILFKLVKWSAMSFLRCRLFS: -0.797 ± 1.4.
On to SPPTGYRASNWRGLGSVDGW, for which the amyloid nucleation score result is “inactive”.
The same measure for QVGQESDSCLSSIRLCFKYR: 0.163 ± 0.24; for YFDCNFVW: 0.997 ± 0.14; for RCDVRFSWLIPSGLE: 1.56 ± 0.086.
The same measure for VGYVWIDRYVWRYGLC: “inactive”; for GGKSVLLTFFQWLP: 0.56 ± 0.2.
Turning to AMKPMKNRSASLVGN, the amyloid nucleation score entry was “inactive”.
The result for LYFSFIFNLSIQGDAEFVSN reads 2.49 ± 0.051; that for FWIWIWRIWYDGNEDNLDHF, “inactive”.
Take TVEVFNHMRERHNYMS: the amyloid nucleation score result was “inactive”.
Take GCGSYSDQGRCSTSVSVC: the amyloid nucleation score entry was “inactive”.
IGKFPDRCTFVQTKYFYVRS displayed an amyloid nucleation score of 1.48 ± 0.075.
The same measure for DSCAIES: “inactive”; for ESWVFRTRDMPGEFTSSVCM: “inactive”.
For GDILGHRRHSVVRSRRQSLT, the amyloid nucleation score entry is “inactive”.
Turning to QLLSLKWYYVTRILCARYAD, the amyloid nucleation score entry was “inactive”.
The same measure for YFTQNSSYVGV: “inactive”; for TRNMRWNFVDLARNRASLNS: “inactive”; for HARFNVRNN: “inactive”.
The result for VWPNGSKKYGLSRMTANSLL reads “inactive”.
The result for YSRLTLVAEPFYNMGVKNLM reads “inactive”; that for TMWTTGTTPPRMISHT, “inactive”; that for MPPRVRYR, “inactive”.
With ECYCWFVNWLSFCKNGYSGM, the amyloid nucleation score result was “inactive”.
On to AGNAFVDR, for which the amyloid nucleation score result is “inactive”.
Substance IYGWWLGTTYM came in with an amyloid nucleation score of 0.656 ± 0.21.
As to VFYELAYFSNNQTDQWVLD, the amyloid nucleation score result is “inactive”.
The same measure for KGFTDWFWCFTPVVEWKSIT: “inactive”; for LNAMWAWSRLDCNWGIQRNR: “inactive”.
As to LHVPGLIYF, the amyloid nucleation score result is “inactive”.
FERISRSFAYIDIRHIICMF gave an amyloid nucleation score of 1.56 ± 0.11.
The result for VCVRYLFLFFSLIFYSGT reads “inactive”; that for ICSVVIEGVFLRRLWDSRVS, “inactive”; that for ISSIYREYLLKHGMFRKRRK, “inactive”.
The result for HLFSNTWYTK reads “inactive”; that for RHDCIYRKV, “inactive”; that for MFNFEFLC, 2.33 ± 0.085.
YFLLYTVNGGTASTLNYV registered an amyloid nucleation score of 2.15 ± 0.093.
Turning to WWSYQGRLVGCGYMRTDNAP, the amyloid nucleation score entry is “inactive”.
Consider VYSEFWVHMLLLSFRVIYIL, for which the amyloid nucleation score entry is “inactive”.
Take MTSMLVTMMPCWVMRFVVWE: the amyloid nucleation score entry is “inactive”.
NQCPIRYLWL gave an amyloid nucleation score of 1.43 ± 0.11.
The same measure for EMSWRSVKSSHYKQMEFSGR: “inactive”.
As for RWVKSKFAV, the amyloid nucleation score result is “inactive”.
Consider WMMMNFHLSMQD, for which the amyloid nucleation score worked out at 1.6 ± 0.087.
The result for WMPDPRVCQKMFVMCKHSP reads “inactive”; that for SGSWVNDSESAEDLT, “inactive”.
The result for GTISIGSIRAVLLAFPFYAL reads 1.08 ± 0.13; that for LFNLGICYTISNYSLSLEQS, 2.1 ± 0.086.
The result for LQYRSL reads “inactive”; that for QEGWCWSYLVAGGWV, “inactive”; that for ECCDFSGCRCTSS, -0.498 ± 0.91.
In the case of LPYQIIWRCCAMVNFDFLVL, the amyloid nucleation score result was “inactive”.
In the case of HFPTCWVGYVKHAVLRYLIY, the amyloid nucleation score entry was “inactive”.
The same measure for DMDDHPDYHRNTND: “inactive”.
The result for GILNFAL reads “inactive”.
The same measure for ELLVNN: “inactive”; for KWDSKFRYLADGHNQLPC: 0.605 ± 0.38.
LAFVANY: the amyloid nucleation score result was “inactive”.
The result for YGEAAYRDRS reads “inactive”; that for LRLSGVMHRTFYCVVSGHGR, “inactive”.
The same measure for HHLKGQ: “inactive”; for GNGSMVVYKSARVNLLSGIT: “inactive”.
The same measure for FVTIRGVRRTCNPFKGINYG: “inactive”; for VYSMEPECIW: “inactive”; for TVVIVPNWPVCRGHDFGERC: “inactive”.
With ANLIIVSVHFPRITTCYNNP, the amyloid nucleation score is 1.95 ± 0.068.
The same measure for YYFDDVTLKASTRDRVLARG: “inactive”; for VGQFVRGLVKLCNGMYYWWL: “inactive”.
The same measure for PDDKLM: “inactive”.
Regarding CKRNKDGKWRRKTWRLVQFY, the amyloid nucleation score was -1 ± 1.2.
The result for VFSFLYIRNV reads 1.55 ± 0.087.
The result for CFLMCVAVVCRIRNYYWCTI reads “inactive”; that for DVPVKNSYDFMYDCWAMPCS, “inactive”.
The same measure for LIRCCFPHMSGVLFMKFTLT: “inactive”.
MWLKPCRGKIKMRGYFSLNG: the amyloid nucleation score result is “inactive”.
As to RLVCCKSHPFDVRYF, the amyloid nucleation score result was “inactive”.
The same measure for PVWFTYQHHCWVKLICV: “inactive”; for MIWWYGVRSMIIDTGWYMHC: “inactive”.
The result for LGYPCFSKWFVYSRSIGLEG reads “inactive”.
The result for RFIWIGIWKEGEGLADYSEK reads “inactive”.
With KDHLHRRYMGRTAVLREIDI, the amyloid nucleation score entry was “inactive”.
The result for SREWSKSVVCTYLTMRGRLS reads “inactive”; that for YHAYRTGE, “inactive”.
For the substance MYPLTVWIVLRLGDSFLK, the amyloid nucleation score result was “inactive”.
LWIWR: the amyloid nucleation score was -0.43 ± 0.7.
The result for TADLRRQTLGWGKFYYVSWF reads “inactive”.
The same measure for SGFYNWI: “inactive”; for FIYIRYPHRRS: “inactive”.
For FYYWVGFCAGKAEDFRDLLC, the amyloid nucleation score entry was “inactive”.
As for DSWHFFCFIMVCIVKYWFFA, the amyloid nucleation score result was “inactive”.
The result for FSVFPLFVTGFQDILWVDLL reads “inactive”; that for LSAHMMSCIKVYEFGFGCVD, “inactive”.
SRCIDGSAWASVAQRRSFSE had an amyloid nucleation score of -0.098 ± 0.85.
Consider SHYRIMT, for which the amyloid nucleation score result is “inactive”.
The same measure for NNLFELPWKFYEQRNVAELM: “inactive”.
The same measure for RCVGEACVNGGCLITITYVG: 1.16 ± 0.11; for PSLQRSQRVSEFRTM: “inactive”.
Consider WYRLRYSQST, for which the amyloid nucleation score result was “inactive”.
The substance RAALPMVFHRFLTFMDAFLV showed an amyloid nucleation score of 1.83 ± 0.075.
The same measure for AMFFYRWRCVGTGSFVMTGV: “inactive”.
The result for IVYTSSLSAMCMRGRNGAVR reads “inactive”; that for MILYPSYLPYLRMVDTTY, “inactive”; that for KFYDHTLCFVDWRDFSW, “inactive”.
As for YDCVIYSVAECLYVTSSFIE, the amyloid nucleation score is 0.253 ± 0.18.
The same measure for QDPMLTCGGRWDFTCAGEVP: “inactive”; for SIFKVISERQSV: “inactive”; for NKSLKLMYFSRDYFKDSRLN: “inactive”.
For the substance SYKMNVMT, the amyloid nucleation score entry was “inactive”.
For LLRVCVSFRCIVNSCMRR, the amyloid nucleation score result was “inactive”.
The result for YSDWDIYWIFMFGAGRFFMY reads 3.06 ± 0.068.
MICRSSGFLYGCSWFGILYL: the amyloid nucleation score result is “inactive”.
The result for NRIFSVCECMVYGICECVCR reads “inactive”; that for AVNCESSCCECYGTFMDKPV, “inactive”.
The same measure for SHSLSVGGFYSPDFRNYTCT: 1.98 ± 0.082; for GNWWCNCTQYNLGMMDSALG: 1.98 ± 0.071.
The same measure for YFNGATS: “inactive”; for KNIPFYIGWVEVSTAGARYP: “inactive”.
QIVYSLILGDPPAASVWEKS: the amyloid nucleation score entry is “inactive”.
The same measure for FSILCKLVLRQLKNGSFYGF: -0.329 ± 0.77.
The same measure for YFHGFLFYSE: “inactive”; for KINLLSCLPVLRYYWISSLA: “inactive”; for GRRMSNLEKPVLLDIKANFL: “inactive”.
With YRSRLYNCFFGQFYMSLTNM, the amyloid nucleation score worked out at 2.07 ± 0.064.
With SNHVWFDLFGEYDASCFCTV, the amyloid nucleation score entry was “inactive”.
The result for FGQLGVVNGFTELWQRLCSW reads “inactive”; that for CRRRYSDLSIYLLVSNDVIV, “inactive”.
The result for MLFVEFSMGSHCRET reads 1.53 ± 0.1.
